Laboratory results reported in paper PMC4692061 (Biochemical Journal, 2015).

Biological target: the molecule itself
Experiment: FRET or BRET

B1: full-length EphA3 (erythropoietin-producing hepatocellular carcinoma A3 receptor tyrosine kinase) tagged at the C-terminus with mTurq or eYFP (receptor, UniProt P29320 21-983, looked up)
chain: ELIPQPSNEVNLLDSKTIQGELGWISYPSHGWEEISGVDEHYTPIRTYQVCNVMDHSQNNWLRTNWVPRNSAQKIYVELKFTLRDCNSIPLVLGTCKETFNLYYMESDDDHGVKFREHQFTKIDTIAADESFTQMDLGDRILKLNTEIREVGPVNKKGFYLAFQDVGACVALVSVRVYFKKCPFTVKNLAMFPDTVPMDSQSLVEVRGSCVNNSKEEDPPRMYCSTEGEWLVPIGKCSCNAGYEERGFMCQACRPGFYKALDGNMKCAKCPPHSSTQEDGSMNCRCENNYFRADKDPPSMACTRPPSSPRNVISNINETSVILDWSWPLDTGGRKDVTFNIICKKCGWNIKQCEPCSPNVRFLPRQFGLTNTTVTVTDLLAHTNYTFEIDAVNGVSELSSPPRQFAAVSITTNQAAPSPVLTIKKDRTSRNSISLSWQEPEHPNGIILDYEVKYYEKQEQETSYTILRARGTNVTISSLKPDTIYVFQIRARTAAGYGTNSRKFEFETSPDSFSISGESSQVVMIAISAAVAIILLTVVIYVLIGRFCGYKSKHGADEKRLHFGNGHLKLPGLRTYVDPHTYEDPTQAVHEFAKELDATNISIDKVVGAGEFGEVCSGRLKLPSKKEISVAIKTLKVGYTEKQRRDFLGEASIMGQFDHPNIIRLEGVVTKSKPVMIVTEYMENGSLDSFLRKHDAQFTVIQLVGMLRGIASGMKYLSDMGYVHRDLAARNILINSNLVCKVSDFGLSRVLEDDPEAAYTTRGGKIPIRWTSPEAIAYRKFTSASDVWSYGIVLWEVMSYGERPYWEMSNQDVIKAVDEGYRLPPPMDCPAALYQLMLDCWQKDRNNRPKFEQIVSILDKLIRNPGSLKIITSAAARPSNLLLDQSNVDITTFRTTGDWLNGVWTAHCKEIFTGVEYSSCDTIAKISTDDMKKVGVTVVGPQKKIISSIKALETQSKNGPVPV
stoichiometry N: 2
